The record followed here is patent US6897017.

Assay in all cases: cell-based or functional assay
Experiment [1] deals with GCN4-DHFR[2:I114A] (murine).
For experiment [2], the target named is WinZip-B1-DHFR[2:I114A] (murine) (UniProt P00375).
In experiment [3] the target is WinZip-B2 fused to DHFR[2:I114A] (clone of LibB-DHFR[2:I114A]) (murine) (UniProt P00375).

On to “GCN4-DHFR[1] (from UniProt P03069 253-274; P00375 1-107)”, for which, in experiment [1], the GCN4 zippers among sequences from passage 9 of model competition selection (of 24 sequences) is 0.
For “WinZip-A1-DHFR[1] (from UniProt P00375 1-107) (designed binder)”, in experiment [2], the Frequency of dominant pair at P12, competition selection (I114A) was 82%; the Selection factor, competition selection (I114A) is 3.2e+06; the frequency of the pair among colonies sequenced at P10 was 33%. In experiment [3], the Frequency of dominant pair at P12, shuffling WinZip-A1 + LibB-DHFR[2:I114A] is 67%; the Selection factor, shuffling WinZip-A1 + LibB-DHFR[2:I114A] is 87000; the frequency of the pair among clones sequenced at P10 was 3 of 5 clones.
